The Immune Epitope Database (IEDB)
pIC50, pKd: −log10 of the molar value.

Experiments:
HLA-B*08:01 [1] = experiment: IEDB peptide-MHC binding, purified MHC/competitive/radioactivity; filed as Kd, often an IC50 or EC50 that approximates it; ≥ and ≤ were set here for values at or beyond the usual limits of such assays; conditions: source organism: Vaccinia virus WR
HLA-A*69:01 = experiment: IEDB peptide-MHC binding, purified MHC/direct/fluorescence; filed as Kd, often an IC50 or EC50 that approximates it; ≥ and ≤ were set here for values at or beyond the usual limits of such assays; conditions: source organism: Giardia lamblia ATCC 50803
HLA-A*26:01 = experiment: as above; conditions: source organism: Giardia lamblia ATCC 50803
HLA-B*44:02 = experiment: as above; conditions: source organism: Giardia lamblia ATCC 50803
HLA-A*03:01 [2] = experiment: as above; conditions: source organism: Giardia lamblia ATCC 50803
HLA-A*11:01 [3] = experiment: as above; conditions: source organism: Giardia lamblia ATCC 50803
HLA-B*27:05 = experiment: as above; conditions: source organism: Giardia lamblia ATCC 50803
HLA-B*15:01 = experiment: as above; conditions: source organism: Giardia lamblia ATCC 50803
HLA-B*07:02 = experiment: as above; conditions: source organism: Giardia lamblia ATCC 50803
HLA-A*24:03 = experiment: as above; conditions: source organism: Giardia lamblia ATCC 50803
HLA-A*02:01 [4] = experiment: as above; conditions: source organism: Giardia lamblia ATCC 50803
HLA-A*31:01 = experiment: as above; conditions: source organism: Giardia lamblia ATCC 50803
HLA-B*40:01 = experiment: as above; conditions: source organism: Giardia lamblia ATCC 50803
HLA-B*08:01 [5] = experiment: as above; conditions: source organism: Giardia lamblia ATCC 50803
HLA-A*24:02 = experiment: IEDB peptide-MHC binding, purified MHC/competitive/fluorescence; ≥ and ≤ were set here for values at or beyond the usual limits of such assays; conditions: source organism: Zaire ebolavirus
HLA-A*02:01 [6] = experiment: as above; conditions: source organism: Zaire ebolavirus
HLA-B*57:01 = experiment: IEDB peptide-MHC binding, purified MHC/competitive/radioactivity; filed as Kd, often an IC50 or EC50 that approximates it; ≥ and ≤ were set here for values at or beyond the usual limits of such assays; conditions: source organism: Dengue virus 1 Brazil/97-11/1997
HLA-A*11:01 [7] = experiment: IEDB peptide-MHC binding, purified MHC/competitive/fluorescence; ≥ and ≤ were set here for values at or beyond the usual limits of such assays; conditions: source organism: Vaccinia virus
HLA-A*03:01 [8] = experiment: IEDB peptide-MHC binding, purified MHC/competitive/fluorescence; filed as Kd, often an IC50 or EC50 that approximates it; ≥ and ≤ were set here for values at or beyond the usual limits of such assays; conditions: source organism: Shigella flexneri 2a str. 301
HLA-B*53:01 = experiment: IEDB peptide-MHC binding, purified MHC/competitive/radioactivity; filed as Kd, often an IC50 or EC50 that approximates it; ≥ and ≤ were set here for values at or beyond the usual limits of such assays; conditions: source organism: Dengue virus 1 Brazil/97-11/1997
HLA-B*35:01 = experiment: as above; conditions: source organism: Dengue virus 1 Brazil/97-11/1997

NFMQRIISL
pKd (HLA-B*08:01 [1]): 5.83

RTDPVIDNI
pKd (HLA-A*69:01): ≤ 4.70
pKd (HLA-A*26:01): ≤ 4.70
pKd (HLA-B*44:02): ≤ 4.70
pKd (HLA-A*03:01 [2]): ≤ 4.70
pKd (HLA-A*11:01 [3]): ≤ 4.70
pKd (HLA-B*27:05): ≤ 4.70
pKd (HLA-B*15:01): ≤ 4.70
pKd (HLA-B*07:02): ≤ 4.70
pKd (HLA-A*24:03): 5.56
pKd (HLA-A*02:01 [4]): ≤ 4.70
pKd (HLA-A*31:01): ≤ 4.70
pKd (HLA-B*40:01): ≤ 4.70
pKd (HLA-B*08:01 [5]): ≤ 4.70

DAVLYYHMM
pIC50 (HLA-A*24:02): 5.50

IILFQRTFS
pIC50 (HLA-A*02:01 [6]): ≤ 4.09
pIC50 (HLA-A*24:02): ≤ 3.53

ATRLENIMW
pKd (HLA-B*57:01): 8.64

WTSGASTSQE
pKd (HLA-B*57:01): 6.69

NNIGIEYSK
pIC50 (HLA-A*11:01 [7]): ≤ 3.76

VVLDLFARK
pKd (HLA-A*03:01 [8]): 6.76

VLRTKITSL
pKd (HLA-B*08:01 [1]): 9.04

SILSSFFSL
pKd (HLA-B*08:01 [1]): 6.64

HRRLRNKRL
pKd (HLA-B*08:01 [1]): 7.55

MPSVVETLEQ
pKd (HLA-B*53:01): 5.92
pKd (HLA-B*35:01): 5.21

ICGLRQLAN
pIC50 (HLA-A*24:02): 4.79
